T1: human β-klotho (human, UniProt Q86Z14 1-1044)
T1 sequence (looked up): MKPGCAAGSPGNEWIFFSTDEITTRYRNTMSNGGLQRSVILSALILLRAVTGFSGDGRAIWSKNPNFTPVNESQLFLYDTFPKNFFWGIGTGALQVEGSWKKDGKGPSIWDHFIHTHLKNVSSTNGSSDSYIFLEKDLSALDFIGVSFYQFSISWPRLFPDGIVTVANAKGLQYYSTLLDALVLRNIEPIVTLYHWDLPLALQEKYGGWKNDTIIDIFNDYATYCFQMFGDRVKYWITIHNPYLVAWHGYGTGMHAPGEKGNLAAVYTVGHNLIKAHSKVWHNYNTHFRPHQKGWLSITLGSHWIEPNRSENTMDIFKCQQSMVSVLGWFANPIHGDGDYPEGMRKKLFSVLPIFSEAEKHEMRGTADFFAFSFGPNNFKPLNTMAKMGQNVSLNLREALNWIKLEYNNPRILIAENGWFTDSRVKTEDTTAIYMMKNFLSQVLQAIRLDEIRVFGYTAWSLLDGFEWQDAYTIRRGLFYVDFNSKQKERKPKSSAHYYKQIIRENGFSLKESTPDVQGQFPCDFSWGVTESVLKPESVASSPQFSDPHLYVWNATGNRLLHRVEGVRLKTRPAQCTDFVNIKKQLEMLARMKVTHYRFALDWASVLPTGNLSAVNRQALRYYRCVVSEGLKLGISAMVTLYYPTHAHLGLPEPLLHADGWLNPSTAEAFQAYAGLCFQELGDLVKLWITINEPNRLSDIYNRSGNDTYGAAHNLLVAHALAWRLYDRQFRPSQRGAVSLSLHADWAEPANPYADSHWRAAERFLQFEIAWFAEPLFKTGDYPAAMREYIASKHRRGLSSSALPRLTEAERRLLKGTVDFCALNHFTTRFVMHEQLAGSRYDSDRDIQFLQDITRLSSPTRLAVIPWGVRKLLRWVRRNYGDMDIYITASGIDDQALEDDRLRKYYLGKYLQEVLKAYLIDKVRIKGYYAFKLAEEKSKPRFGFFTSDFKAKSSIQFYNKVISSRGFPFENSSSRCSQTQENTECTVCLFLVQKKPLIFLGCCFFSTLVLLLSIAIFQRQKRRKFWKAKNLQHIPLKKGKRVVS


The binders below were run against T1, human β-klotho (assay: cell-based or functional assay).

| EC50 (nM), pERK In Cell Western | Fold-WT (EC50 of variant / EC50 of FGF21-WT) | Binder |
| --- | --- | --- |
| 26 nM | 9.3 fold | hFGF21(33-209)-V5 (ligand) DSSPLLQFGGQVRQRYLYTDDDQQTEAHLEIREDGTVGGAAHQSPESLLQLKALKPGVIQILGVKASRFLCQKPDGALYGSLHFDPEACSFRELLLENGYNVYQSEAHGLPLHLPGNRSPHRDPASQGPARFLPLPGLPPALPEPPGILAPQPPDVGSSDPLAMVGPSQARSPSYAS |
| 6.7 nM | 1.4 fold | hFGF21(33-209)-V14-pool1 (ligand) DSSPLLQFGGQVRQRYLYTDDAQETEAHLEIREDGTVGGAAHQSPESLLELKALKPGVIQILGVKTSRFLCQKPDGALYGSLHFDPEACSFRELLLENGYNVYQSEAHGLPLHLPGNRSPHRDPAPQGPARFLPLPGLPPALPEPPGILAPQPPDVGSSDPLAMVGPSQGRSPSYAS |
| 6.7 nM | 1 fold | hFGF21(33-209)-V14-R154C, L174P (ligand) DSSPLLQFGGQVRQRYLYTDDAQETEAHLEIREDGTVGGAAHQSPESLLELKALKPGVIQILGVKTSRFLCQKPDGALYGSLHFDPEACSFRELLLENGYNVYQSEAHGLPLHLPGNRSPHCDPAPQGPARFLPLPGLPPAPPEPPGILAPQPPDVGSSDPLAMVGPSQGRSPSYAS |
| 107 nM | 22 fold | hFGF21(33-209)-V14pool 1-N-40 kDa bPEG-AL (ligand, 40 kDa branched PEG (aldehyde reagent) on the N-terminal amine) DSSPLLQFGGQVRQRYLYTDDAQETEAHLEIREDGTVGGAAHQSPESLLELKALKPGVIQILGVKTSRFLCQKPDGALYGSLHFDPEACSFRELLLENGYNVYQSEAHGLPLHLPGNRSPHRDPAPQGPARFLPLPGLPPALPEPPGILAPQPPDVGSSDPLAMVGPSQGRSPSYAS |
| 28 nM | 18 fold | hFGF21(33-209)-V11 (ligand) DSSPLLQFGGQVRQRYLYTDDDQQTEAHLEIREDGTVGGAAHQSPESLLELKALKPGVIQILGVKTSRFLCQKPDGALYGSLHFDPEACSFRELLLENGYNVYQSEAHGLPLHLPGNRSPHRDPAPQGPARFLPLPGLPPALPEPPGILAPQPPDVGSSDPLAMVGPSQGRSPSYAS |
| 21 nM | 3.3 fold | hFGF21(33-209)-V14-L174P, R154C-40 kDa bPEG-MA (ligand, 40 kDa branched maleimido-PEG on Cys 154 (numbered on SEQ ID NO:1)) DSSPLLQFGGQVRQRYLYTDDAQETEAHLEIREDGTVGGAAHQSPESLLELKALKPGVIQILGVKTSRFLCQKPDGALYGSLHFDPEACSFRELLLENGYNVYQSEAHGLPLHLPGNRSPHCDPAPQGPARFLPLPGLPPAPPEPPGILAPQPPDVGSSDPLAMVGPSQGRSPSYAS |
| 14 nM | 5 fold | hFGF21(33-209)-V12 (ligand) DSSPLLQFGGQVRQRYLYTDDDQQTEAHLEIREDGTVGGAAHQSPESLLQLKALKPGVIQILGVQTSRFLCQKPDGALYGSLHFDPEACSFRELLLENGYNVYQSEAHGLPLHLPGNRSPHRDPAPQGPARFLPLPGLPPALPEPPGILAPQPPDVGSSDPLAMVGPSQGRSPSYAS |
| 4.2 nM | 1.3 fold | hFGF21(33-209)-V53 (ligand) DSSPLLQFGGQVRQRYLYTDDAQETEAHLEIREDGTVGGAAHQSPESLLELKALKPGVIQILGVKTSRFLCQKPDGALYGSLHFDPEACSFRELLLENGYNVYQSEAHGLPLHLPGNRSPHRDPASQGPARFLPLPGLPPAPPEPPGILAPQPPDVGSSDPLAMVGPSQGRSPSYAS |
| 15 nM | 2.7 fold | hFGF21(33-209)-V18 (ligand) DSSPLLQFGGQVRQRYLYTDDAQQTESHLEIREDGTVGGAAHQSPESLLQLKALKPGVIQILGVQTSRFLCQKPDGALYGSLHFDPEACSFRELLLENGYNVYQSEAHGLPLHLPGNRSPHRDPAPQGPARFLPLPGLPPALPEPPGILAPQPPDVGSSDPLAMVGPSQGRSPSYAS |
| 25 nM | 9.2 fold | hFGF21(33-209)-V54 (ligand) DSSPLLQFGGQVRQRYLYTDDAQQTEAHLEIREDGTVGGAAHQSPESLLELKALKPGVIQILGVKTSRFLCQKPDGTLYGSLHFDPEACSFRELLLENGYNVYQSEAHGLPLHLPGNRSPHRDPASQGPARFLPLPGLPPAPPEPPGILAPQPPDVGSSDPLAMVGPSQGRSPSYAS |
| 66 nM | 94 fold | hFGF21(33-209)-V52 (ligand) DSSPLVQFGGQVRQRYLYTDDAQQTEAHLEIREDGTVGGAAHQSPESLLQLKALKPGVIQILGVKTSRFLCQKPDGALYGSLHFDPEACSFRELLLENGYNVYQSEAHSLPLHLPGNKSPHRDPASQGPARFLPLPGLPPALPEPPGILAPQPPDVGSSDPLSMVGPSQARSPSYAS |
| 11 nM | 4 fold | hFGF21(33-209)-V13 (ligand) DSSPLLQFGGQVRQRYLYTDDDQQTEAHLEIREDGTVGGAAHQSPESLLQLKALKPGVIQILGVKASRFLCQKPDGALYGSLHFDPEACSFRELLLENGYNVYQSEAHGLPLHLPGNRSPHRDPAPQGPARFLPLPGLPPALPEPPGILAPQPPDVGSSDPLAMVGPSQGRSPSYAS |
| 18 nM | 3.3 fold | hFGF21(33-209)-V10 (ligand) DSSPLLQFGGQVRQRYLYTDDAQETEAHLEIREDGTVGGAAHQSPESLLQLKALKPGVIQILGVKASRFLCQKPDGALYGSLHFDPEACSFRELLLENGYNVYQSETHGLPLHLPGNKSPHRDPASQGPARFLPLPGLPPALPEPPGILAPQPPDVGSSDPLAMVGPSQARSPSYAS |
| 3.3 nM | 1.2 fold | hFGF21(33-209)-V15 (ligand) DSSPLLQFGGQVRQRYLYTDDAQETEAHLEIREDGTVGGAAHQSPESLLQLKALKPGVIQILGVQTSRFLCQKPDGALYGSLHFDPEACSFRELLLENGYNVYQSEAHGLPLHLPGNRSPHRDPAPQGPARFLPLPGLPPALPEPPGILAPQPPDVGSSDPLAMVGPSQGRSPSYAS |
| 5.3 nM | 1.4 fold | hFGF21(33-209)-V14-pool2 (ligand) DSSPLLQFGGQVRQRYLYTDDAQETEAHLEIREDGTVGGAAHQSPESLLELKALKPGVIQILGVKTSRFLCQKPDGALYGSLHFDPEACSFRELLLEDGYNVYQSEAHGLPLHLPGNRSPHRDPAPQGPARFLPLPGLPPALPEPPGILAPQPPDVGSSDPLAMVGPSQGRSPSYAS |
| 19 nM | 6.8 fold | hFGF21(33-209)-V7 (ligand) DSSPLLQFGGQVRQRYLYTDDAQETEAHLEIREDGTVGGAAHQSPESLLQLKALKPGVIQILGVKASRFLCQKPDGALYGSLHFDPEACSFRELLLENGYNVYQSEAHGLPLHLPGNRSPHRDPASQGPARFLPLPGLPPALPEPPGILAPQPPDVGSSDPLAMVGPSQARSPSYAS |
| 11 nM | 6.5 fold | hFGF21(33-209)-V16 (ligand) DSSPLLQFGGQVRQRYLYTDDAQETEAHLEIREDGTVGGAAHQSPESLLQLKALKPGVIQILGVKASRFLCQKPDGALYGSLHFDPEACSFRELLLENGYNVYQSEAHGLPLHLPGNRSPHRDPAPQGPARFLPLPGLPPALPEPPGILAPQPPDVGSSDPLAMVGPSQGRSPSYAS |
